We go through 24 molecules from patent publication US20120117670A1 (U3 PHARMA, published 2012).

Where a chain is given by its changes, count along the chain named. Names may count otherwise.

Assay [1] deals with T1, Human AXL-Fc (R&D Systems, #154-AL) (human, UniProt P30530 26-451).
T1 construct: Bought reagent; also called human AXL-Fc fusion protein; human AXL-Fc protein; not shown: Fc part of the bought fusion protein
T1 sequence: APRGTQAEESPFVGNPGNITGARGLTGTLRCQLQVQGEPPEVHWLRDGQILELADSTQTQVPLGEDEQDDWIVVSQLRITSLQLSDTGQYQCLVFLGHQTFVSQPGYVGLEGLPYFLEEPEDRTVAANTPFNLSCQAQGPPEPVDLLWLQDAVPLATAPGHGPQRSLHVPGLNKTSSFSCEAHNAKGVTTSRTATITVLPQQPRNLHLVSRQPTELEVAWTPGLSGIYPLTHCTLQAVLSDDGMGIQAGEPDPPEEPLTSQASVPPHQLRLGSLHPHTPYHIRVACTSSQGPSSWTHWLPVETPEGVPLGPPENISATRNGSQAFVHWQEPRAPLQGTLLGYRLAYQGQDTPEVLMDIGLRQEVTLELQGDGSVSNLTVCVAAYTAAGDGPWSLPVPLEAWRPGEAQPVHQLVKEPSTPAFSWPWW
Briefly: ELISA on plate-adsorbed human AXL-Fc (1 ug/ml), 5-fold antibody dilution series, AP-conjugated goat anti-human IgG, fluorescent substrate (Example 14). A general note: In an ELISA, binding on a coated surface is turned into a signal by an enzyme label.

For assay [2], the target named is T1, Human AXL-Fc (R&D Systems, #154-AL). Briefly: ELISA on plate-adsorbed human AXL-Fc (1 ug/ml), 5-fold antibody dilution series, AP-conjugated goat anti-human IgG, fluorescent substrate (Example 13).
The target is the same in assay [3]. The description is as above. This is another data set of the same source.
The target is the same in assay [4]. The description is as above. This is another data set of the same source.

B1: h#11D5-T1 (antibody, human IgG1, kappa, V domains shown)
VH: QVQLQESGPGLVKPSQTLSLTCTVSGYSITSNYWGWIRQPPGMGLEWIGHITNSGNTTYNPSLKSRVTISVDTSENQFSLKLSSVTPADTAVYYCAKGAFDYWGQGTLVTVSS
VL: DVQMTQSPSSLSASVGDRVTITCRASQDIGNYLSWYQQKPGKAPKLLIYGAIKLAVGVPSRFSGSGSGTDFTLTISSLQPEDFATYYCLQYIQFPLTFGQGTKLEIKR
notes: Humanized antibody of rat #11D5 made from pEF6KCL/h#11D5-T1L and pEF1/FCCU/h#11D5-T1H; also called T1 (humanized #11D5)
A word on the EC50 (read off the curve): it is the concentration at which the effect is half-maximal. A lower EC50 (read off the curve) goes with greater potency. Turning to B1, the “EC50 (read off the curve)” value in assay [1] is around 0.02 µg/mL.

B2: h#11B7-T25 (antibody, human IgG1, kappa)
heavy: not shown
light: DIQMTQSPSSLSASVGDRVTITCRASQDIGNYLRWFQQKPGKAPKLLISGATNLAAGVPSRFSGSGSGSDFTLTISSLQPEDFATYYCLQSKESPWTFGQGTKVEIKRTVAAPSVFIFPPSDEQLKSGTASVVCLLNNFYPREAKVQWKVDNALQSGNSQESVTEQDSKDSTYSLSSTLTLSKADYEKHKVYACEVTHQGLSSPVTKSFNRGEC
notes: Humanized IgG1/kappa
As for B2, the “EC50 (read off the curve)” value in assay [2] is around 0.01 µg/mL.

B3: h#11B7-T24 (antibody, human IgG1, kappa, V domains shown)
VH: QVQLQESGPGLVKPSETLSLTCTVSGYSITSNYWGWIRQPPGKGLEWIGYITYSGSTSYNPSLKSRVTISRDTSKNQFSLKLSSVTAADTAVYYCAITTFYYWGQGTLVTVSS
VL: DIQMTQSPSSLSASVGDRVTITCRASQDIGNYLRWYQQKPGKAPKLLISGATNLAAGVPSRFSGSGSGSDYTLTISSLQPEDFATYYCLQSKESPWTFGQGTKVEIKR
notes: Humanized IgG1/kappa
On to B3, for which the “EC50 (read off the curve)” value in assay [2] is around 0.02 µg/mL.

B4: h#11B7-T9 (antibody, human IgG1, kappa, V domains shown)
VH: B3 VH with T68S
VL: B3 VL with Y36F, L47M, Y71F
notes: Humanized IgG1/kappa
As for B4, the half-maximal effective concentration (EC50 (read off the curve)) in assay [3] was around 0.02 µg/mL.

B5: h#11B7-T10 (antibody, human IgG1, kappa, V domains shown)
VH: B3 VH with T68S
VL: B3 VL
notes: Humanized IgG1/kappa
Take B5: the “EC50 (read off the curve)” value in assay [3] is around 0.02 µg/mL.

B6: h#11B7-T23 (antibody, human IgG1, kappa, V domains shown)
VH: B3 VH
VL: B3 VL with Y36F, L47M, Y71F
notes: Humanized IgG1/kappa
On to B6, for which, in assay [2], the “EC50 (read off the curve)” value is around 0.01 µg/mL.

B7: h#11B7-T17 (antibody, human IgG1, kappa, V domains shown)
VH: B3 VH with I48M, V67I
VL: B3 VL
notes: Humanized IgG1/kappa
For the molecule B7, the concentration for a half-maximal effect (EC50 (read off the curve)) in assay [4] is around 0.02 µg/mL.

B8: h#11B7-T16 (antibody, human IgG1, kappa, V domains shown)
VH: B3 VH with I48M, V67I
VL: B3 VL with Y36F, L47M, Y71F
notes: Humanized IgG1/kappa
As for B8, in assay [4], the half-maximal effective concentration (EC50 (read off the curve)) was around 0.02 µg/mL.

B9: h#11B7-T15 (antibody, human IgG1, kappa)
heavy: not shown
light: B2 light with F71Y
notes: Humanized IgG1/kappa
For B9, the “EC50 (read off the curve)” value in assay [4] was around 0.02 µg/mL.

B10: h#11B7-T22 (antibody, human IgG1, kappa)
heavy: not shown
light: B2 light with F71Y
notes: Humanized IgG1/kappa
As for B10, in assay [2], the “EC50 (read off the curve)” value is around 0.02 µg/mL.

B11: h#11B7-T13 (antibody, human IgG1, kappa, V domains shown)
VH: B3 VH with T68S
VL: B3 VL with Y71F
notes: Humanized IgG1/kappa
Take B11: the “EC50 (read off the curve)” value in assay [3] is around 0.03 µg/mL.

B12: h#11B7-T18 (antibody, human IgG1, kappa)
heavy: not shown
light: B2 light
notes: Humanized IgG1/kappa
In the case of B12, the “EC50 (read off the curve)” value in assay [4] was around 0.02 µg/mL.

B13: h#11B7-T8 (antibody, human IgG1, kappa, V domains shown)
VH: B3 VH with T68S
VL: B3 VL with Y36F
notes: Humanized IgG1/kappa
On to B13, for which the “EC50 (read off the curve)” value in assay [3] is around 0.02 µg/mL.

B14: h#11B7-T19 (antibody, human IgG1, kappa, V domains shown)
VH: B3 VH with I48M, V67I
VL: B3 VL with L47M, Y71F
notes: Humanized IgG1/kappa
As to B14, the concentration for a half-maximal effect (EC50 (read off the curve)) in assay [4] was around 0.02 µg/mL.

B15: h#11B7-T7 (antibody, human IgG1, kappa, V domains shown)
VH: B3 VH with T68S
VL: B3 VL with L47M
notes: Humanized IgG1/kappa
As to B15, the “EC50 (read off the curve)” value in assay [3] was around 0.03 µg/mL.

B16: h#11B7-T27 (antibody, human IgG1, kappa)
heavy: not shown
light: B2 light with F36Y
notes: Humanized IgG1/kappa
B16: the concentration for a half-maximal effect (EC50 (read off the curve)) in assay [2] is around 0.02 µg/mL.

B17: h#11B7-T20 (antibody, human IgG1, kappa, V domains shown)
VH: B3 VH with I48M, V67I
VL: B3 VL with Y71F
notes: Humanized IgG1/kappa
For the molecule B17, the “EC50 (read off the curve)” value in assay [4] is around 0.02 µg/mL.

B18: h#11B7-T11 (antibody, human IgG1, kappa, V domains shown)
VH: B3 VH with T68S
VL: B3 VL with Y36F, Y71F
notes: Humanized IgG1/kappa
Turning to B18, the “EC50 (read off the curve)” value in assay [3] was around 0.02 µg/mL.

B19: h#11B7-T26 (antibody, human IgG1, kappa, V domains shown)
VH: B3 VH
VL: B3 VL with L47M, Y71F
notes: Humanized IgG1/kappa
Consider B19, for which the concentration for a half-maximal effect (EC50 (read off the curve)) in assay [2] is around 0.03 µg/mL.

B20: h#11B7-T12 (antibody, human IgG1, kappa, V domains shown)
VH: B3 VH with T68S
VL: B3 VL with L47M, Y71F
notes: Humanized IgG1/kappa
Consider B20, for which the half-maximal effective concentration (EC50 (read off the curve)) in assay [3] is around 0.04 µg/mL.

B21: h#11B7-T21 (antibody, human IgG1, kappa, V domains shown)
VH: B3 VH
VL: B3 VL with L47M
notes: Humanized IgG1/kappa
With B21, the “EC50 (read off the curve)” value in assay [2] is around 0.02 µg/mL.

B22: h#11B7-T14 (antibody, human IgG1, kappa, V domains shown)
VH: B3 VH with I48M, V67I
VL: B3 VL with L47M
notes: Humanized IgG1/kappa
As to B22, the “EC50 (read off the curve)” value in assay [4] is around 0.02 µg/mL.

B23: h#11D5-T5 (antibody, human IgG1, kappa)
heavy: not shown
light: DIQMTQSPSSLSASVGDRVTITCRASQDIGNYLSWFQQKPGKAPRRMIYGAIKLAVGVPSRFSGSGSGTDYTLTISSLQPEDFATYYCLQYIQFPLTFGGGTKVEIKRTVAAPSVFIFPPSDEQLKSGTASVVCLLNNFYPREAKVQWKVDNALQSGNSQESVTEQDSKDSTYSLSSTLTLSKADYEKHKVYACEVTHQGLSSPVTKSFNRGEC
notes: Humanized IgG1/kappa
B23: in assay [1], the “EC50 (read off the curve)” value is around 0.01 µg/mL.

B24: h#11D5-T2 (antibody, human IgG1, kappa, V domains shown)
VH: B1 VH with Q1E, V67I, T68S
VL: B1 VL with V2I, Y36F, K45R, L47M, F71Y
notes: Humanized IgG1/kappa
With B24, in assay [1], the “EC50 (read off the curve)” value was around 0.01 µg/mL.
